Assay results taken from the supplement of paper PMC9170038.

Test system: MS2 coat protein
Assay: apparent KD of MS2 coat protein; designed switch direction (-1 OFF switch, 1 ON switch): -1; higher = weaker reporter binding
In short: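 For each design, the apparent KD is the median over clusters of curves fitted to normalised cluster fluorescence. Clusters held RNA switches with common flanks, transcribed on Illumina chips by stalled E. coli RNA polymerase. These were titrated with SNAP-549-labelled MS2 coat protein, doubling from 0.7 or 1.5 nM to 3 µM, without input, with 200 uM small-molecule ligand, or with an oligonucleotide input.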

[1] = input ligand: microRNA oligo, concentration not stated
[2] = Eterna round: R95, input ligand: microRNA oligo, concentration not stated
[3] = Eterna round: R95, input ligand: FMN 200 uM
[4] = Eterna round: R95, input ligand: none

Row | Sequence | apparent KD of MS2 coat protein (input ligand: FMN 200 uM) | apparent KD of MS2 coat protein (input ligand: none) | apparent KD of MS2 coat protein [1] | apparent KD of MS2 coat protein [2] | apparent KD of MS2 coat protein [3] | apparent KD of MS2 coat protein [4]
1 | UGAUGACAUGAGGAUCACCCAUGUCAGGAUAUUGAGCUUGAGCUGAAAAGUUCGAGUUCGAGAAGGGACUGUCG [-29.6, -26.6 kcal, A 28%, 1] (Eterna round: R97, puzzle: Exclusion 1) | 0.0283 µM | 0.029 µM | – | – | – | –
2 | UUAAUAUAUGUAGGAUAUGCGUGGCGAAGCUAUGCAGAAGGACAUGAGGAUCACCCAUGUUCCAGCGUCCGCGUACGGAUGCAA [JL Eng1 1.21 mod 11] (Eterna round: R96, puzzle: Exclusion NG 1) | 0.016 µM | 0.0133 µM | 0.0123 µM | – | – | –
3 | GAUCACUGAGGAUAUACACAGAUACAAAGUAUCUGAUUGUGACAUGAGGAUCACCCAUGUAGAAGGCAGAGGUC [Omei Ex2 B6] (Eterna round: R97, puzzle: Exclusion 2) | 0.179 µM | 0.0311 µM | – | – | – | –
4 | CCGGAUAUGCAGGAUAUCGUAUCGGAUACGAUACGAGAAGGGUAUACAUGAGGAUCACCCAUGUGCCUUACCGG [Mat - Exclusion 6 - Eli Mod - D83] (puzzle: Exclusion 6) | – | – | – | 0.018 µM | – | –
5 | ACUCUUCUUGUUAGGAUAUGCAUCGGGCUUCCGCAGCAGAAGGAACAUGAGGAUCACCCAUGUCAAAUAAAAUC (Eterna round: R97, puzzle: Brourd's mod of Exclusion 4) | 0.141 µM | 0.0208 µM | – | – | – | –
6 | GGAAUACAUGAGGAUCACCCAUGUAAGGAUAUGCUGAAUAUCACGGAAUAAACGUGCAGCAGAAGGUACAAAGG [Mat - Mod of my Eli Mod D46] (puzzle: Exclusion 1) | – | – | – | 0.0659 µM | 0.103 µM | 0.0936 µM
7 | GCCAUGUAAGGAUAUAACCGUCUUCAUGAACAAUGAGGAUGUUAGAAGGUACAUGAGGAUCACCCAUGUCCUUC [Eternabot (Original) Solution 6] (Eterna round: R97, puzzle: Exclusion 4) | 0.0157 µM | 0.0125 µM | – | – | – | –
8 | UAUUUGCAAGCGAGAUCCCACAUGAGGAUCACCCAUGUUCUUUGAAAGUACAGAAUUACUGUACAAGCUCGUCUUAU [Winner reversed engineered 31] (Eterna round: R97, puzzle: Sensor, turn-off variant 1) | 0.0626 µM | 0.0734 µM | – | – | – | –
9 | UACAUGAGGAUCACCCAUGUUUUGUCGUGUAUGGUAUUUAUCUAGGAUAUCAAUUGUUUUAUUUAUGAGAAGGAGAAUAUUAAU [JMF's solution 56] (Eterna round: R96, puzzle: Exclusion NG 3) | – | – | 0.0248 µM | – | – | –
10 | UAUAUGUCAGGAUAUUAGUAGUAAAUGAAUAAAAUUAUUACUGAGAAGGGACAUGAGGAUCACCCAUGUGUCUC [Mat - Exclusion 4 - Eli Mod - D26] (Eterna round: R97, puzzle: Exclusion 4) | 0.577 µM | 0.175 µM | – | – | – | –
11 | AAUACUAACACGAAAGUGUUAGUACAAUAAGCUUGUGGUACAUGAGGAUCACCCAUGUCCUCAUAAGCUCGUCUUAU [Mat - Sensor v3 - Turn-off var 2 - D41] (puzzle: Sensor v3, turn-off variant 2) | – | – | – | 0.0745 µM | 0.0243 µM | 0.0219 µM
12 | AAUAUCGUAGGAUAUUAAUACUCAGACAUGAGGAUCACCCAUGUUUGGUGGGUCGGAGAAUGAGAAGGGCGAUGAA [EX5 #15] (Eterna round: R97, puzzle: Exclusion 5) | 0.086 µM | 0.0547 µM | – | – | – | –
13 | CCUAUGUGAGGAUAUCACUGGUCUUUUCAUUGGAUGAUUAGUGAGAAGGCACAUGAGGAUCACCCAUGUCGGUG [Ex4 - 3 - 52] (puzzle: Exclusion 4) | – | – | – | 0.0346 µM | – | –
14 | AUCAGCUCGUCAGGAUAUACAUGAGGAUCACCCAUGUGAUCAAUAGCAGCUUCGGCUGCAUACAUGUAGAAGGGACGAGCUGAU [ENG2/6-B3] (Eterna round: R96, puzzle: Exclusion NG 2) | 0.05 µM | 0.821 µM | 0.234 µM | – | – | –
15 | UGAUCAGACCGAGGAUAUACAUGUAGGACCCACGUGAGUGGGUCCAUUACAUGAGGAUCACCCAUGUAGAAGGCGGUCUGAUCU [JL ENG2 1.90] (Eterna round: R96, puzzle: Exclusion NG 2) | 0.313 µM | 0.139 µM | 0.0977 µM | – | – | –
16 | AAACAACGGACAGGAUAUCCGAAAAUAAAGCUAGGAGAAGGGUCGAAAACAUGAGGAUCACCCAUGUGCGUGGCGGGUUCUUAG [Zaerqu] (Eterna round: R96, puzzle: Exclusion NG 1) | 0.0256 µM | 0.0212 µM | 0.0134 µM | – | – | –
17 | GUAGAGUAAGGAUAUACUGAAUAGGAUAGAAUGGUUAGAAAGUAGAAGGUACAUGAGGAUCACCCAUGUAAUGU [Excluse me!!!! 19 - Jieux - Exclusion 4] (Eterna round: R96, puzzle: Exclusion 4) | 0.0209 µM | 0.024 µM | 0.0186 µM | – | – | –

Row | Sequence | apparent KD of MS2 coat protein (input ligand: FMN 200 uM) | apparent KD of MS2 coat protein (input ligand: none) | apparent KD of MS2 coat protein [1] | apparent KD of MS2 coat protein [2] | apparent KD of MS2 coat protein [3] | apparent KD of MS2 coat protein [4]
18 | GAUUGAGAGCAGGAUAUCUUAGAAAUGUAUGAAAGAGAAGGGCUCACAUGAGGAUCACCCAUGUGGUCCUAGAU [JL Dibiri mod 17] (puzzle: Exclusion 6) | – | – | – | 0.0228 µM | 0.244 µM | 0.0275 µM
19 | AGGGAGCGAGGAUAUACAGAGUAAGAAACUACUCCCUCAGUACAUGAGGAUCACCCAUGUAGAAGGCGCCCGAC [EX2 A.2] (Eterna round: R97, puzzle: Exclusion 2) | 0.0337 µM | 0.0209 µM | – | – | – | –
20 | AUGAGGUUAGGAUAUACAUGAGGAUCACCCAUGUUGAAGGGUUAGGUAGGCGGAGCUGGUAGAAGGAACGGAGC [JR_Exclu3_Sub057] (puzzle: Exclusion 3) | – | – | – | 0.0388 µM | – | –
21 | GAUUGACAUGAGGAUCACCCAUGUGAGGAUAUCGGCUGGACCGUGUUGGCCUGCCUCUCGAGAAGGCGCAUAGG [Exclusion 1 V53] (puzzle: Exclusion 1) | – | – | – | 0.0356 µM | 0.0499 µM | 0.0405 µM
22 | CAUGUCUGAGGAUAUCGUUUUUUGUACAUGAGGAUCACCCAUGUCCUAUUUUUUAUAUUACGAGAAGGCAGUGGAU [JR_E5_Sub091] (Eterna round: R96, puzzle: Exclusion 5) | 0.0279 µM | 0.0392 µM | 0.0278 µM | – | – | –
23 | AAAAAACAAGGAUAUACUAAAAAAAAAUGUGUUAAUUUUUCACAUGAGGAUCACCCAUGUAGAAGGUGUUAAAA [JR_Exclusion2_Sub006] (puzzle: Exclusion 2) | – | – | – | 0.079 µM | 0.0547 µM | 0.0936 µM
24 | CCGGCUGCUGUGAGGAUAUGCCUGUGGGUGCGUGGGCAGAAGGCACAUGAGGAUCACCCAUGUCCUGCGGUCCC [salish99_bmx4_r4_114] (Eterna round: R97, puzzle: Brourd's mod of Exclusion 4) | 0.021 µM | 0.0266 µM | – | – | – | –
25 | GCAAGCUUUUUGGUUUUCAACAUGAGGAUCACCCAUGUUCGUCUUAUACCCGGGCCCGGGCGGUGCCCGGGCCCGGG [-40, -68 kcal, A 14%] (Eterna round: R97, puzzle: Sensor, turn-off variant 1) | 0.0182 µM | 0.0217 µM | – | – | – | –
26 | UAUUUAGCAAGCAGAUCCCACAUGAGGAUCACCCAUGUUCUCUGAAAGUACAGAAUUACUGUACAUGCUCGUCUUAU [Winner reversed engineered 33] (Eterna round: R97, puzzle: Sensor, turn-off variant 1) | 0.108 µM | 0.13 µM | – | – | – | –
27 | AGAUCGUCAGGAUAUACAUGAGGAUCACCCAUGUGUAGUCUAAAUUUGACUACAAUAUGUAGAAGGGACGAUCG [Exclusion 3 (MOD3 of #1 Marzena11)] (Eterna round: R97, puzzle: Exclusion 3) | 0.0989 µM | 0.0428 µM | – | – | – | –
28 | AAUAAACAAGCGAGAUCCUACAUGAGGAUCACCCAUGUGCUCGUCUUAUAAAGUACUAUCACGAAAGUGAUAGUACA [Mat - Sensor v3 - turn-off var 1 - Eli Mod - D65] (puzzle: Sensor v3, turn-off variant 1) | – | – | – | 0.0415 µM | 0.0161 µM | 0.0153 µM
29 | GCCGAAAGUGUGAGGAUAUACCUAUGGAUACAUAGGUAGAAGGCACAUGAGGAUCACCCAUGUUCCUCAUCGGC [Eli bmx4 4.17] (Eterna round: R97, puzzle: Brourd's mod of Exclusion 4) | 0.551 µM | 0.0928 µM | – | – | – | –
30 | UGGUAACAUGAGGAUCACCCAUGUCAGGAUAUCAGGAAGAAGAGAGGAGAGGAGAAGAUGAGAAGGGACUAUAU [Excluse me! 11 - Jieux - Exclusion 1] (puzzle: Exclusion 1) | – | – | – | 0.0198 µM | 0.0216 µM | 0.0262 µM
31 | UUAGUAUUGCAAGGAUAUGUUUAUGUUUAUUUUCCUCUUACAUGAGGAUCACCCAUGUUUAACUUACAGAAGGUGCUAUGAUUU [JR_ExcNG2_Sub032] (Eterna round: R96, puzzle: Exclusion NG 2) | 1.12 µM | 1.03 µM | 0.477 µM | – | – | –
32 | GACUUCUCUGAGGAUAUUGCAUCAUACGAUAAAUAAGAAGGCAGAACAUGAGGAUCACCCAUGUGGGUUUUUAG [Bingo-Bango-32] (Eterna round: R97, puzzle: Exclusion 6) | 0.135 µM | 0.0686 µM | – | – | – | –
33 | GUAACAUGCUGGUGAUCAUACAUGAGGAUCACCCAUGUAACAAGCUUUUUGCUCGUCUUAAUUUAAUUGAUUACUAG [Stov1/8-A2] (Eterna round: R97, puzzle: Sensor, turn-off variant 1) | 0.137 µM | 0.106 µM | – | – | – | –
